{"source": "paper PMC4497498", "about": "“Kv1.3 contains an alternative C-terminal ER exit motif and is recruited into COPII vesicles by Sec24a” (BMC Biochemistry, 2015)", "key": {"[1]": {"biological_target": "the molecule itself", "assay": "native gel or EMSA + other: negative stain electron microscopy; purified Kv1.3 in Fos-12 or amphipol A8-35 on a 4-16 % native gel; negative stain EM with 2D class averages of Kv1.3 in A8-35; tetramer"}, "[2]": {"biological_target": "T1, Sec24a^341 (Sec24a lacking the first 341 residues) (human, UniProt O95486 342-1093)", "T1 construct": "Sec24a, COPII cargo adaptor subunit, human; ~80 kDa; source: Hi5 insect cells (baculovirus), purified (HisPur Cobalt resin, Superose 6)", "T1 sequence (looked up)": "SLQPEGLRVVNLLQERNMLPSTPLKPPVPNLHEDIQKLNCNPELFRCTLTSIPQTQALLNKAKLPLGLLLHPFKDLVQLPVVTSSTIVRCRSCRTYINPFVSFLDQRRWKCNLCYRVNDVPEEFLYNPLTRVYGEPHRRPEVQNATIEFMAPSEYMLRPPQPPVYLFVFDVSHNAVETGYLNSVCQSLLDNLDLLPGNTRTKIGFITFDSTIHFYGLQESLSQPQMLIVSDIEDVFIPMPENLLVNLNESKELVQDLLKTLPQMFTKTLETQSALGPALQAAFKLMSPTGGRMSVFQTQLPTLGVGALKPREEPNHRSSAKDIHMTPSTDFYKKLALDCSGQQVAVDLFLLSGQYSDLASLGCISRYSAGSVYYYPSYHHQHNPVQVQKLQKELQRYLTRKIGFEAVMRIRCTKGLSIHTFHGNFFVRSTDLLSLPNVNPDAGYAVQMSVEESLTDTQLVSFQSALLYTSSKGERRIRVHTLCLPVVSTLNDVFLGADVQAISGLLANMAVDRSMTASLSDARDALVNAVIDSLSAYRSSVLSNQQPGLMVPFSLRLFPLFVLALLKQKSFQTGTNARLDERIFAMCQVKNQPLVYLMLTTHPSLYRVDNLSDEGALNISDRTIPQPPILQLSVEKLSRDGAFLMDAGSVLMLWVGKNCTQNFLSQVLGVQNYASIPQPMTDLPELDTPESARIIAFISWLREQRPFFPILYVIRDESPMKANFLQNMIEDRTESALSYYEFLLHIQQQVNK", "assay": "membrane flotation assay; 15 ug Sec24a^341 incubated with 15 ug Kv1.3 proteoliposomes (DOPC:DOPS 95:5) in 25 mM Tris, 150 mM NaCl, 160 mM KOAc, 1 mM MgOAc, pH 7.5, 30 % sucrose, 32 °C for 1 h; overlaid with 25 % and 0 % sucrose, 200,000 g for 1 h at 4 °C; fractions read by Western blot", "settings": "both partners purified"}}, "data": [{"binder": "Kv1.3 (mouse Shaker-type voltage-gated potassium channel subfamily member 3), recombinant, His6-tagged (natural protein, UniProt P16390 1-528, looked up, phosphorylated, sites not stated (non-dephosphorylated tetramers were used for reconstitution), Kv1.3, mouse; wild type cDNA cut from Kv1.3-pcDNA3 at the Nco and Kpn sites and ligated into pFastbac HT; Integral membrane protein; a monomer runs at ~65 kDa; No TEV cleavage of the tag is described; also called Kv1.3 tetramers; Kv1.3 proteoliposomes; source: Hi5 insect cells (baculovirus), purified (cobalt Chelating Sepharose, Superose 6) in Fos-12; reconstituted into DOPC:DOPS proteoliposomes, …) MTVVPGDHLLEPEAAGGGGGDPPQGGCGSGGGGGGCDRYEPLPPALPAAGEQDCCGERVVINISGLRFETQLKTLCQFPETLLGDPKRRMRYFDPLRNEYFFDRNRPSFDAILYYYQSGGRIRRPVNVPIDIFSEEIRFYQLGEEAMEKFREDEGFLREEERPLPRRDFQRQVWLLFEYPESSGPARGIAIVSVLVILISIVIFCLETLPEFRDEKDYPASPSQDVFEAANNSTSGAPSGASSFSDPFFVVETLCIIWFSFELLVRFFACPSKATFSRNIMNLIDIVAIIPYFITLGTELAERQGNGQQAMSLAILRVIRLVRVFRIFKLSRHSKGLQILGQTLKASMRELGLLIFFLFIGVILFSSAVYFAEADDPSSGFNSIPDAFWWAVVTMTTVGYGDMHPVTIGGKIVGSLCAIAGVLTIALPVPVIVSNFNYFYHRETEGEEQAQYMHVGSCQHLSSSAEELRKARSNSTLSKSEYMVIEEGGMNHSAFPQTPFKTGNSTATCTTNNNPNSCVNIKKIFTDV", "values": [{"measurement": "stoichiometry N", "setting": "[1]", "value": 4}, {"measurement": "binding result", "setting": "[2]", "value": "binds"}]}]}
